How the values were obtained:
ATP1A1 = assay: Prime editing at ATP1A1 (Q118R) in CD34+ HSPCs; PE and indels quantified by BEAT/TIDE (Sanger) or CRISPResso2 (amplicon sequencing); assay type: cell-based, human; settings: for PE2max efficiency: compared to two substitutions (v1), no nicking sgRNA
B2M = assay: Prime editing at B2M in CD34+ HSPCs; assay type: cell-based, human; settings: PE2max; average, three donors; amplicon sequencing
Source text: FIGS. 6A-6D provide schematics and plots showing that modulation of nucleotide metabolism positively interacts with MMR evasion. (FIG. 6A) PE and indel quantification as determined by CRISPResso2 analysis from amplicon sequencing. The MMR evasion strategy based on the installation of additional silent mutations and the epegRNAs used to target the ATP1A1 locus are illustrated. Point mutations are illustrated in orange. 2.5×10^5 HSPCs were electroporated with PE2max RNAs targeting ATP1A1 and cultured in the presence or absence of 50 μM each dN and 25× in-house Vpx VLPs. Genomic DNA was harvested 3 days post-nucleofection. Data are plotted as mean±SEM from n=3 independent biological replicates performed with CD34^+ HSPCs from three different donors. (FIG. 6B) Same as in (FIG. 6A), but HSPCs were electroporated with Vpx mRNA and PE2max RNAs targeting B2M. Data are plotted as mean±SEM from n=3 independent biological replicates performed with CD34^+ HSPCs from three different donors. (FIG. 6C) Same as in (FIG. 6B), but HSPCs were electroporated with Vpx mRNA and PE3max RNAs targeting the HBG1/HBG2 promoters. […]
FIGS. 10A-10C provide a schematic and plots showing that modulation of nucleotide metabolism positively interacts with MMR-evading epegRNAs in quiescent HSPCs. […] (FIG. 10B) PE and indels quantification as determined by BEAT and TIDE analysis from Sanger sequencing. […]

For “PEmax: PEmax prime editor mRNA, SEQ ID NO: 68 [reference compound]”, the “basal level of editing, ATP1A1-Q118R allele frequency” value (ATP1A1; PEmax mRNA (PE3max RNAs), no dNs, average, three donors) was 41%.

With “PE2: first-generation prime editor mRNA, SEQ ID NO: 67 [reference compound]” the “frequency of alleles harboring the ATP1A1-Q118R mutation” value (ATP1A1; PE2 mRNA + epegRNA/nicking sgRNA, absence of VPX VLPs, average, two donors, Sanger sequencing) was 17%.

B1: ATP1A1-Q118R_v2 epegRNA: synthetic epegRNA, SEQ ID NO: 7; three substitutions, optimized to evade MMR (nucleic acid)
guide: GUUCCUCUUCUGUAGCAGCUGUUUUAGAGCUAGAAAUAGCAAGUUAAAAUAAGGCUAGUCCGUUAUCAACUUGAAAAAGUGGCACCGAGUCGGUGCUAGCAUCAGGGCUGCUACAGAAGAGCGCGGUUCUAUCUAGUUACGCGUUAAACCAACUAGAAUUU
modifications: modified_base 1 OTHER; 2'-O-methyl modified nucleotide with phosphorothioate linkage; modified_base 2 OTHER; modified_base 3 OTHER; modified_base 158 OTHER; Nucleotide with phosphorothioate linkage; modified_base 159 OTHER; 2'-O-methyl modified nucleotide with phosphorothio
notes: three substitutions, optimized to evade MMR
In the case of B1, the PE2max efficiency (ATP1A1) is reported as “marked increase” and the “level of improvement by Vpx mRNA co-delivery and dN supplementation” value (ATP1A1; quiescent HSPCs, compared with HBB and B2M epegRNAs) is reported as “highest level of improvement”.

B2: v3 epegRNA: synthetic epegRNA, SEQ ID NO: 8; four substitutions (+3 TTGG to CCTA) (nucleic acid)
guide: GUUCCUCUUCUGUAGCAGCUGUUUUAGAGCUAGAAAUAGCAAGUUAAAAUAAGGCUAGUCCGUUAUCAACUUGAAAAAGUGGCACCGAGUCGGUGCUAGCAUUAGGGCUGCUACAGAAGAGCGCGGUUCUAUCUAGUUACGCGUUAAACCAACUAGAAUUU
modifications: modified_base 1 OTHER; 2'-O-methyl modified nucleotide with phosphorothioate linkage; modified_base 2 OTHER; modified_base 3 OTHER; modified_base 158 OTHER; Nucleotide with phosphorothioate linkage; modified_base 159 OTHER; 2'-O-methyl modified nucleotide with phosphorothio
B2 was tested, and the “precise prime editing allele frequency” value (ATP1A1; PE2max, without Vpx VLPs and dNs, average, amplicon sequencing) was 20.1% and the PE2max efficiency (ATP1A1) was “marked increase”.

B3: original B2M epegRNA: synthetic epegRNA to knockout B2M, single nucleotide substitution; SEQ ID NO: 12 (nucleic acid)
guide: GAGUAGCGCGAGCACAGCUAGUUUUAGAGCUAGAAAUAGCAAGUUAAAAUAAGGCUAGUCCGUUAUCAACUUGAAAAAGUGGCACCGAGUCGGUGCUCCGUGGCCUGAGCUGUGCUCGCGCCGCGGUUCUAUCUAGUUACGCGUUAAACCAACUAGAAUUU
modifications: modified_base 1 OTHER; 2'-O-methyl modified nucleotide with phosphorothioate linkage; modified_base 2 OTHER; modified_base 3 OTHER; modified_base 158 OTHER; Nucleotide with phosphorothioate linkage; modified_base 159 OTHER; 2'-O-methyl modified nucleotide with phosphorothio
For B3, the PE efficiency (B2M) was 2%.

From patent US20260193679A1, “SYSTEMS AND METHODS FOR MODIFYING A POLYNUCLEOTIDE” (The Children's Medical Center Corporation, priority 2023, published 2026)
